Measurements taken from patent publication US20200109182A1, “GLP-1 ANALOG FUSION PROTEIN AND PREPARATION METHOD AND APPLICATION THEREOF” (JIANGSU T-MAB BIOPHARMA CO., LTD, priority 2013, published 2020).

Target: GLP-1 receptor (GLP-1R) on CHO DG44 2-A4-2-A8 cells
Assay: cell-based or functional assay

## GLP-1 (7-37) (Val^8-GLP-1 (7-37)) (from UniProt P01275 27-57) (peptide)
  EC50 (CRE-luciferase reporter, test NO. 1): 0.75 nM
  EC50 (CRE-luciferase reporter, test NO. 2): 0.368 nM
  EC50 (CRE-luciferase reporter, test NO. 3): 0.364 nM
